This data set relates to T1, Ms6 integrase (Int) (Mycobacterium phage Ms6).
T1 sequence: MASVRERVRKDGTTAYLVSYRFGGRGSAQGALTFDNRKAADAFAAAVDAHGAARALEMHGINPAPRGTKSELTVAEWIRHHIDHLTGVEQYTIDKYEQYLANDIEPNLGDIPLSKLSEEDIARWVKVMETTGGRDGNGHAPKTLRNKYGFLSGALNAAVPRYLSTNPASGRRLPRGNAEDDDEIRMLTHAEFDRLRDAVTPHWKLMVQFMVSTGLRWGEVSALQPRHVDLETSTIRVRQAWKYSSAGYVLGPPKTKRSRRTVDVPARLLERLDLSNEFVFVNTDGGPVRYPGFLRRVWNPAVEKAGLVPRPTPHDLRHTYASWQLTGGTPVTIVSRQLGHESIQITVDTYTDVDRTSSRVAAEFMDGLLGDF
In words: cell_activity. Conditions: for activity (transformants/ug DNA): M. smegmatis.

The values that follow come from patent US6833135.

“Ms6 attP-int fragment, 1382 bp (primers pC/p10)”: the activity (transformants/ug DNA) (no integration) was determined as 0.

Under “no integration”, “Ms6 attP-int fragment, 1459 bp (primers p1C/p10)” returned an activity (transformants/ug DNA) of 0.

The substance “CAGCAGACACCCACATGTCCGTGTTGTCACTGACAACACGGCTCCAGGTTTTCCCAGGTCGCTACAGGTCTAAAAAGGTCGGAACAGAACCACACGGGTGTTTTTTCGCAGGTAAACGCCCATTTCCCCACGATCGAAGGGGTTCGAATCCCCTTAGCTCCACCCAAAACCGCAGGTCAGCGAATCGCCCAGAATCTGACAGCACCGATGACATCACAACGGATAGAATCCGGGTATGGCATCAGTGCGTGAACGGGTCCGCAAAGAC (double strand) [Ms6 attP region, 273 bp (pAV3, primers p13/p2N)]” had an activity (colonies/ug DNA) (integrase in trans from suicide helper pAV4, about) of 40000.

Where the note is “smallest functional cassette”, “Ms6 attP-int fragment, 1521 bp (primers p13/p10)” returned an activity (transformants/ug DNA) of 100000.
